Data: US20220315909

Key:
[1] = target: SEQ ID NO 17994
[2] = target: SEQ ID NO 17995
[3] = target: SEQ ID NO 17996
[4] = target: SEQ ID NO 17997
[5] = target: SEQ ID NO 17998
[6] = target: SEQ ID NO 17999
[7] = target: SEQ ID NO 18000
[8] = target: SEQ ID NO 18001
[9] = target: SEQ ID NO 18002
[10] = target: SEQ ID NO 18003
[11] = target: SEQ ID NOs: 17202-17993
[12] = target: SEQ ID NOs: 5-17201

B1: Recombinant Human Matriptase/ST14 Catalytic Domain (protein)
chain: not shown
cleavage ratio (PAR) on peptide array, human MT-SP1 500 nM [1]: showed higher cleavage ratios than the sequence shown as SEQ ID NO: 3 for both the cleavages by human uPA and human MT-SP1 | cleavage ratio (PAR) on peptide array, human MT-SP1 500 nM [2]: showed higher cleavage ratios than the sequence shown as SEQ ID NO: 3 for both the cleavages by human uPA and human MT-SP1 | cleavage ratio (PAR) on peptide array, human MT-SP1 500 nM [3]: showed higher cleavage ratios than the sequence shown as SEQ ID NO: 3 for both the cleavages by human uPA and human MT-SP1 | cleavage ratio (PAR) on peptide array, human MT-SP1 500 nM [4]: showed higher cleavage ratios than the sequence shown as SEQ ID NO: 3 for both the cleavages by human uPA and human MT-SP1 | cleavage ratio (PAR) on peptide array, human MT-SP1 500 nM [5]: showed higher cleavage ratios than the sequence shown as SEQ ID NO: 3 for both the cleavages by human uPA and human MT-SP1 | cleavage ratio (PAR) on peptide array, human MT-SP1 500 nM [6]: showed higher cleavage ratios than the sequence shown as SEQ ID NO: 3 for both the cleavages by human uPA and human MT-SP1 | cleavage ratio (PAR) on peptide array, human MT-SP1 500 nM [7]: showed higher cleavage ratios than the sequence shown as SEQ ID NO: 3 for both the cleavages by human uPA and human MT-SP1 | cleavage ratio (PAR) on peptide array, human MT-SP1 500 nM [8]: showed higher cleavage ratios than the sequence shown as SEQ ID NO: 3 for both the cleavages by human uPA and human MT-SP1 | cleavage ratio (PAR) on peptide array, human MT-SP1 500 nM [9]: showed higher cleavage ratios than the sequence shown as SEQ ID NO: 3 for both the cleavages by human uPA and human MT-SP1 | cleavage ratio (PAR) on peptide array, human MT-SP1 500 nM [10]: showed higher cleavage ratios than the sequence shown as SEQ ID NO: 3 for both the cleavages by human uPA and human MT-SP1 | cleavage ratio (PAR) on peptide array, human MT-SP1 500 nM [11]: showed higher cleavage ratios than the sequence shown as SEQ ID NO: 3 for both the cleavages by human uPA and human MT-SP1 | cleavage ratio (PAR) on peptide array, human MT-SP1 500 nM [12]: showed higher cleavage ratios than the sequence shown as SEQ ID NO: 2 for both the cleavages by human uPA and human MT-SP1
